Results: paper doi:10.1101/2025.05.22.655451

Molecular target: HA N-terminally tagged C99 (APP C-terminal fragment C99) (UniProt P05067)
Assay: proximity ligation

Chain of HA N-terminally tagged C99 (APP C-terminal fragment C99) (P05067 672-770): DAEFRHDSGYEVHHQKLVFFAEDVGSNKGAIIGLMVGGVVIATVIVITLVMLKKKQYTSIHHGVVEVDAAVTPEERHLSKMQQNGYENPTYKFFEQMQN

PLA+ spots per cell (PLA+ spots per cell) | Substance
21 | MT5-MMP TM/IC with alanine substitutions of the C-terminal PDZ-binding EWV motif (domain or fragment)
25 | Chimera of the TM of MT1-MMP and the IC of MT5-MMP
25 | MT5-MMP TM/IC (transmembrane and intracellular domains, extracellular domains depleted) (from UniProt Q9Y5R2 53-645) (domain or fragment)
